# Assay results published in patent US11402384B2 (Duke University, priority 2015, dated 2022).
# Numbering of substitutions follows the chain as printed. Numbers in names are those of the source. Read-outs that look alike come from different tables or passages of the source.
# B1: A42C Badan: tsGBP2_C42 (SEQ ID NO: 22) Badan conjugate (conjugate)
# chain: MKLEIFSWWAGDEGPALEALIRLYKQKYPGVEVINATVTGGCGVNAKAVLKTRMLGGDPPDTFQVHAGQELIGTWVVADRMEDLTSLFRQEGWLQAFPKGLIDLLSYKGGIWSVPVNIHRSNVMWYIPAKLKEWGVTPPKTWAEFLATAQTLKRKGLEAPLALGENWTQQHLWESVALATLGADGWNNLWSGKLKFTDPKAVAVWETFGKVLDAANKDAAGLSWQQAVDRVVQGKAAFNIMGDWAAGYMSTTLKLKPGTDFAWTPSPGTSGIFMMLSDSFGLPKGAKNRQNAINWLKLVGSKEGQDTFNPLKGSIAARLDSDPAKYNAYGQSAMKDWKSNRIVGSLVHGAVAPESFMSQFGTVMEIFLQSRNPQAAANAAQAIANQVGLGRGGSHHHHHH
# modifications: Badan conjugate; tsGBP2_C42 (42C substitution mutant with signal peptide replaced with M and a GGSHHHHHH at C-terminus)
# B2: H66C Acrylodan: tsGBP2_C66 (SEQ ID NO: 24) Acrylodan conjugate (conjugate)
# chain: B1 chain with C42A, H66C
# modifications: Acrylodan conjugate; tsGBP2_C66 (66C substitution mutant with signal peptide replaced with M and a GGSHHHHHH at C-terminus)
# B3: S277C Acrylodan: tsGBP2_C277 (SEQ ID NO: 31) Acrylodan conjugate (conjugate)
# chain: B1 chain with C42A, S277C
# modifications: Acrylodan conjugate; tsGBP2_C277 (cysteine substitution mutant with signal peptide replaced with M and a GGSHHHHHH at C-terminus)
# B4: Q64C Acrylodan: tsGBP2_C64 (SEQ ID NO: 23) Acrylodan conjugate (conjugate)
# chain: B1 chain with C42A, Q64C
# modifications: Acrylodan conjugate; tsGBP2_C64 (64C substitution mutant with signal peptide replaced with M and a GGSHHHHHH at C-terminus)
# B5: S223C Badan: tsGBP2_C223 (SEQ ID NO: 27) Badan conjugate (conjugate)
# chain: B1 chain with C42A, S223C
# modifications: Badan conjugate; tsGBP2_C223 (223C substitution mutant with signal peptide replaced with M and a GGSHHHHHH at C-terminus)
# B6: W224C Acrylodan: tsGBP2_C224 (SEQ ID NO: 28) Acrylodan conjugate (conjugate)
# chain: B1 chain with C42A, W224C
# modifications: Acrylodan conjugate; tsGBP2_C224 (224C substitution mutant with signal peptide replaced with M and a GGSHHHHHH at C-terminus)
# B7: W244C Badan: tsGBP2_C244 (SEQ ID NO: 30) Badan conjugate (conjugate)
# chain: B1 chain with C42A, W244C
# modifications: Badan conjugate; tsGBP2_C244 (244C substitution mutant with signal peptide replaced with M and a GGSHHHHHH at C-terminus)
# B8: H119C Acrylodan: tsGBP2_C119 (SEQ ID NO: 25) Acrylodan conjugate (conjugate)
# chain: B1 chain with C42A, H119C
# modifications: Acrylodan conjugate; tsGBP2_C119 (119C substitution mutant with signal peptide replaced with M and a GGSHHHHHH at C-terminus)
# B9: H119C Badan: tsGBP2_C119 (SEQ ID NO: 25) Badan conjugate (conjugate)
# chain: B1 chain with C42A, H119C
# modifications: Badan conjugate; tsGBP2_C119 (119C substitution mutant with signal peptide replaced with M and a GGSHHHHHH at C-terminus)
# B10: H66C Badan: tsGBP2_C66 (SEQ ID NO: 24) Badan conjugate (conjugate)
# chain: B1 chain with C42A, H66C
# modifications: Badan conjugate; tsGBP2_C66 (66C substitution mutant with signal peptide replaced with M and a GGSHHHHHH at C-terminus)
# B11: W167C Badan: tsGBP2_C167 (SEQ ID NO: 26) Badan conjugate (conjugate)
# chain: B1 chain with C42A, W167C
# modifications: Badan conjugate; tsGBP2_C167 (167C substitution mutant with signal peptide replaced with M and a GGSHHHHHH at C-terminus)
# B12: Q225C Acrylodan: tsGBP2_C225 (SEQ ID NO: 29) Acrylodan conjugate (conjugate)
# chain: B1 chain with C42A, Q225C
# modifications: Acrylodan conjugate; tsGBP2_C225 (225C substitution mutant with signal peptide replaced with M and a GGSHHHHHH at C-terminus)
# B13: Q64C Badan: tsGBP2_C64 (SEQ ID NO: 23) Badan conjugate (conjugate)
# chain: B1 chain with C42A, Q64C
# modifications: Badan conjugate; tsGBP2_C64 (64C substitution mutant with signal peptide replaced with M and a GGSHHHHHH at C-terminus)
# B14: S223C Acrylodan: tsGBP2_C223 (SEQ ID NO: 27) Acrylodan conjugate (conjugate)
# chain: B1 chain with C42A, S223C
# modifications: Acrylodan conjugate; tsGBP2_C223 (223C substitution mutant with signal peptide replaced with M and a GGSHHHHHH at C-terminus)
# B15: Q225C Badan: tsGBP2_C225 (SEQ ID NO: 29) Badan conjugate (conjugate)
# chain: B1 chain with C42A, Q225C
# modifications: Badan conjugate; tsGBP2_C225 (225C substitution mutant with signal peptide replaced with M and a GGSHHHHHH at C-terminus)
# B16: W224C Badan: tsGBP2_C224 (SEQ ID NO: 28) Badan conjugate (conjugate)
# chain: B1 chain with C42A, W224C
# modifications: Badan conjugate; tsGBP2_C224 (224C substitution mutant with signal peptide replaced with M and a GGSHHHHHH at C-terminus)
# B17: W167C Acrylodan: tsGBP2_C167 (SEQ ID NO: 26) Acrylodan conjugate (conjugate)
# chain: B1 chain with C42A, W167C
# modifications: Acrylodan conjugate; tsGBP2_C167 (167C substitution mutant with signal peptide replaced with M and a GGSHHHHHH at C-terminus)
# Test: Ratiometric fluorescence glucose titration of fluorescent conjugates
# Type: binding
# Design: key to Shape (fluorescence response to glucose) / Change (fluorescence response to glucose): m, monochromatic; d, dichromatic (i.e. spectral shape change); 0, no change
# Details: tsGBP2 cysteine scan; for Kd: ratiometric fit at λ1 and λ2
# Text: Semi-synthetic FRSs can be engineered by site-specifically attaching thiol-reactive, environmentally sensitive fluorophores that respond to ligand-mediated conformational changes. Identification of FRS candidates that can be used for sensing applications comprises three steps: • 1. Cysteine scan. Mutant glucose-binding proteins containing single cysteines are constructed for site-specific attachment of thiol-reactive fluorophores. […] Candidate positions fall into three classes: endosteric, replacing a residue that contacts the ligand directly; peristeric, located at the rim of the binding site; allosteric (Marvin et al., 1997, Proc Natl Acad Sci USA, 94, 4366-71; Marvin, 1998, J Am Chem Soc, 120, 7-11), located outside the binding site at sites that undergo local structural changes in concert with the hinge-bending motion. • 2. Fluorophore screening. Thiol-reactive, environmentally sensitive fluorophores are attached to each cysteine mutant prepared in step 1. • 3. Evaluation of the glucose-mediated change of all the fluorescent conjugates prepared in step 2. Responses to ligand binding in which there is both a change in fluorescence emission intensity and spectral shape are essential for chemometric applications, because such changes enable ratiometric measurements. Changes in spectral shape typically are accompanied by a shift in the wavelength of the emission intensity maxima. Three classes of fluorescent responses are possible: • i. No response. • ii. Monochromatic response (emission intensity increases or decreases without a change in spectral shape) • iii.
# Determination of temperature- and ligand-dependent fluorescence landscapes. […] Temperatures were advanced in 1K steps.
# Determination of emission intensity spectra.
# 2 For a single glucose-binding site, the fractional saturation is given by […]
# [1] = Acrylodan conjugate, read-out: Kd ^appKd
# [2] = Acrylodan conjugate, read-out: Kd ^trueKd
Molecule,Shape (fluorescence response to glucose) (Badan conjugate),Shape (fluorescence response to glucose) (Acrylodan conjugate),other results
B1,m,–,–
B2,–,d,–
B3,–,0,–
B4,–,0,–
B5,m,–,–
B6,–,m,Kd [1]: 700 µM; Kd [2]: 900 µM
B7,m,–,–
B8,–,m,Kd [1]: 20 µM; Kd [2]: 20 µM
B9,m,–,–
B10,m,–,–
B11,m,–,–
B12,–,m,–
B13,m,–,–
B14,–,0,–
B15,m,–,–
B16,0,–,–
B17,–,d,Kd [1]: 20 µM; Kd [2]: 20 µM
